Results reported in the supplement of paper PMC10724198.
± gives the standard deviation of the averaged measurements.

The sequences below were run on Saccharomyces cerevisiae (assay: protein stability index of tFT-peptide fusion (C-terminal peptide) (PSI (0-1 scale)); higher = more stable (slower turnover)). Settings: genetic background: wild type; temperature: 30 C.
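Further: PSI is a weighted mean of sequencing reads over stability bins, variants kept only with over 10 reads, mCherry proximal and sfGFP distal, peptide attached via GGGS linker.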

Row | Sequence | protein stability index
1 | RRGPLDSVLVAI | 0.713 ± 0.05
2 | RRGRGGSGGSAP | 0.734 ± 0.053
3 | RRGWGDRLGRDA | 0.711 ± 0.1
4 | RRHKNNRLTVCR | 0.625 ± 0.098
5 | RRINRRGPRMME | 0.62 ± 0.015
6 | RRKEQGNHSTMR | 0.663 ± 0.013
7 | RRKHKSEEKHKR | 0.649 ± 0.038
8 | RRKNIQEKKIKK | 0.725 ± 0.016
9 | RRKVGVFTRRWV | 0.691 ± 0.04
10 | RRKYIFRMIYPR | 0.658 ± 0.026
11 | RRLRGGTQAEGE | 0.682 ± 0.068
12 | RRLRRALPPQLA | 0.577 ± 0.037
13 | RRPPPPSPPPPP | 0.7095 ± 0.0062
14 | RRPSSCSPLPLY | 0.695 ± 0.03
15 | RRRAEGRRGVRA | 0.6223 ± 0.0014
16 | RRRAGSKEKQRK | 0.703 ± 0.019
17 | RRRGQDEGKQKR | 0.7511 ± 0.0059
18 | RRRGQLNTAEWK | 0.717 ± 0.065
19 | RRRGREVCRCTE | 0.716 ± 0.046
20 | RRRPPPLPPPHL | 0.63 ± 0.015
21 | RRSGILGSSFVF | 0.75 ± 0.047
22 | RRSRTEVVAVGG | 0.676 ± 0.017
23 | RRSVMLISNETR | 0.698 ± 0.038
24 | RRTDHQRAVREI | 0.731 ± 0.042
25 | RRVFSAGTRCGI | 0.761 ± 0.11

Row | Sequence | protein stability index
26 | RSAVPSARASAD | 0.6431 ± 0.0026
27 | RSCPGSWFRLSV | 0.699 ± 0.12
28 | RSFPSPPASLLL | 0.66 ± 0.062
29 | RSGPLFPLSCPP | 0.767 ± 0.026
30 | RSGPRMNVNRTL | 0.646 ± 0.11
31 | RSGQEKEKWEER | 0.701 ± 0.022
32 | RSHSTSSETNFV | 0.6885 ± 0.0024
33 | RSKHNEDRVVYI | 0.709 ± 0.093
34 | RSLPLAPPLAPL | 0.742 ± 0.029
35 | RSPPAPPHSCPP | 0.69 ± 0.14
36 | RSRGARMPTTPT | 0.684 ± 0.034
37 | RSRGSRNGKWVW | 0.703 ± 0.02
38 | RSRRDTDFGLLI | 0.717 ± 0.11
39 | RSSDFASDRGWT | 0.67 ± 0.028
40 | RSSLYLDVVLSF | 0.709 ± 0.097
41 | RSSRRLAGPVSS | 0.639 ± 0.06
42 | RSSSLRRGIGQR | 0.688 ± 0.071
43 | RSTDKLLGLKKM | 0.652 ± 0.073
44 | RSTVFCSTFVHD | 0.672 ± 0.014
45 | RSVGPPTLPTHP | 0.666 ± 0.023
46 | RSWCAGMAGRRR | 0.6626 ± 0.0043
47 | RSWGRVCFGGVV | 0.657 ± 0.054
48 | RTGTGTRTRPSR | 0.701 ± 0.066
49 | RTKENYKRRKEK | 0.702 ± 0.12
50 | RTLEIYRGLTNE | 0.648 ± 0.094

Row | Sequence | protein stability index
51 | RTPQLSVFDLGI | 0.7957 ± 0.0039
52 | RTRRGRIGEIGP | 0.703 ± 0.037
53 | RTRTGRPKSPLH | 0.6354 ± 0.0052
54 | RTSLGFSPLIHQ | 0.6818 ± 0.0057
55 | RTVTKGTTFKVR | 0.671 ± 0.057
56 | RTWGGKKHKKRK | 0.716 ± 0.014
57 | RVAWFSSNCFAV | 0.571 ± 0.061
58 | RVDFRLPVYLGI | 0.61 ± 0.015
59 | RVEGGWGEAWRE | 0.803 ± 0.075
60 | RVEGKNNKEVCI | 0.742 ± 0.079
61 | RVESRFSGTDSF | 0.708 ± 0.041
62 | RVGPLLLTAGPR | 0.644 ± 0.029
63 | RVGQINKFLPLE | 0.682 ± 0.071
64 | RVGSGCFVGIFC | 0.577 ± 0.024
65 | RVKGCYGPGSGI | 0.685 ± 0.066
66 | RVLGEGKCCIRV | 0.6063 ± 0.0056
67 | RVLRAELCLHEI | 0.687 ± 0.065
68 | RVLSAASATRMT | 0.619 ± 0.013
69 | RVLSQAGSYSLC | 0.587 ± 0.019
70 | RVLSWSGRQSWC | 0.668 ± 0.045
71 | RVNERNAEAGGD | 0.641 ± 0.043
72 | RVPLFPIKMGLG | 0.591 ± 0.035
73 | RVPPSRLSLPLS | 0.6951 ± 0.0043
74 | RVRAITRKCGQY | 0.656 ± 0.051
75 | RVRASGIGRFVE | 0.625 ± 0.033

Row | Sequence | protein stability index
76 | RVRGTLMLRSYG | 0.64 ± 0.037
77 | RVSIPALKEIAS | 0.737 ± 0.036
78 | RVSLSHPDRCAG | 0.7264 ± 0.0025
79 | RVSRSCCATGEG | 0.599 ± 0.019
80 | RVSSAAGGSIDL | 0.738 ± 0.1
81 | RVSVRGLESGVC | 0.665 ± 0.026
82 | RVSWGSTRLSRA | 0.6427 ± 0.0064
83 | RVVMIYAQWCLP | 0.623 ± 0.011
84 | RVWEGGGGGDGC | 0.664 ± 0.047
85 | RVWEGGRGGDGC | 0.676 ± 0.024
86 | RVWERGGGGDGC | 0.645 ± 0.049
87 | RWGCHFWVGFVG | 0.544 ± 0.046
88 | RWIWTRESTFSN | 0.705 ± 0.016
89 | RWVGVGPEGGVA | 0.678 ± 0.068
90 | RYFCPVLGPVNF | 0.652 ± 0.046
91 | RYFSFNVSSCLD | 0.767 ± 0.048
92 | RYGYCVPNVMRS | 0.778 ± 0.11
93 | RYRRQESYVIIK | 0.766 ± 0.13
94 | SAACQRWGYLRV | 0.68781 ± 0.00045
95 | SAERLKIVNDRI | 0.753 ± 0.055
96 | SAFLRRFLFFQW | 0.572 ± 0.035
97 | SALPPSRLPRSP | 0.713 ± 0.049
98 | SAMSFTSRGVRH | 0.698 ± 0.011
99 | SAPLLLPPLSSP | 0.713 ± 0.023
100 | SAPPPSPAPSPY | 0.677 ± 0.023

Row | Sequence | protein stability index
101 | SARDVPPPPLTP | 0.733 ± 0.018
102 | SASRSLFLSRSP | 0.6703 ± 0.0023
103 | SASWARRSLPIW | 0.729 ± 0.045
104 | SATIRDILHCRF | 0.8435 ± 0.0021
105 | SAVHRSVPMGGG | 0.666 ± 0.032
106 | SAVSVATVVWSV | 0.705 ± 0.092
107 | SCEERVGEKVMG | 0.6398 ± 0.0014
108 | SCFEFGALSSPI | 0.753 ± 0.034
109 | SCGWRGGWWVMG | 0.691 ± 0.072
110 | SCLPSDRLTYLP | 0.714 ± 0.014
111 | SCLRFCSFGSPF | 0.757 ± 0.12
112 | SCLYPTQILART | 0.631 ± 0.017
113 | SCPPRLVFPRPS | 0.66 ± 0.034
114 | SCRVSFLFFLFE | 0.562 ± 0.016
115 | SCTPEDGRVRYT | 0.66 ± 0.048
116 | SDCPYVYVRVRD | 0.69 ± 0.02
117 | SDDPPLSLVISL | 0.754 ± 0.02
118 | SDMCLGRVFCFL | 0.63 ± 0.069
119 | SDSPSAPPSAYH | 0.62 ± 0.058
120 | SDVCVYVIRDIG | 0.565 ± 0.068
121 | SDVFGGVLSFGF | 0.6613 ± 0.0008
122 | SEAKRMSGSSAN | 0.635 ± 0.041
123 | SEICGAPLARLR | 0.707 ± 0.034
124 | SEILFRSSPFPI | 0.721 ± 0.09
125 | SELEADKRIKRK | 0.739 ± 0.094

Row | Sequence | protein stability index
126 | SEPADGRDRMAE | 0.6885 ± 0.0054
127 | SERNENKTGKVQ | 0.747 ± 0.11
128 | SESKGAMCQRNA | 0.6475 ± 0.0054
129 | SETMFRLVADIT | 0.715 ± 0.011
130 | SFACVYVPPALF | 0.712 ± 0.025
131 | SFCHWRFSFPKC | 0.666 ± 0.04
132 | SFFGYPCFLLSI | 0.54 ± 0.026
133 | SFFRFRIPLFPS | 0.669 ± 0.065
134 | SFFSVQIQFGLS | 0.617 ± 0.012
135 | SFFVTVAGPFQI | 0.686 ± 0.012
136 | SFGIGFFATRGF | 0.676 ± 0.031
137 | SFGLRCPASRGS | 0.648 ± 0.052
138 | SFGPQFLAPVFS | 0.706 ± 0.031
139 | SFGSVFGGRWCV | 0.672 ± 0.035
140 | SFKSCMCLFCGV | 0.659 ± 0.034
141 | SFLAHSFLPLPP | 0.631 ± 0.069
142 | SFLLPTLVRLSH | 0.65 ± 0.022
143 | SFLPPLFPHPPP | 0.841 ± 0.031
144 | SFLRTRPHAPLP | 0.6363 ± 0.0021
145 | SFLSLYRLTPGR | 0.655 ± 0.048
146 | SFLVLRGSGGKW | 0.713 ± 0.082
